From publication PMC7773337 (2020) come the findings set out here.

For the assay, the target named is reconstituted mononucleosomes (histone octamer on Widom '601' DNA).

B1: zz-LAP1B(98-136)-His6 wild-type (domain or fragment)
chain: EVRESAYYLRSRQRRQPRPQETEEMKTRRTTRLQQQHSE
As for B1, the Kd (usually a measure of binding affinity in units of concentration) was determined as 0.43 µM.

B2: zz-LAP1B(98-136)-2E His6 (S108E, T124E) (domain or fragment)
chain: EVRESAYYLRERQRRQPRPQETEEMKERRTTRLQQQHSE
Regarding B2, the dissociation constant Kd turned out to be 9.13 µM.
